This is an account of results in patent US20190062453A1 (Hoffmann-La Roche, published 2019).

In general, Kd refers to the equilibrium constant for the complex coming apart. High values mean weaker binding, low ones tighter binding. The term koff denotes the first-order rate constant of dissociation. Higher therefore signals a short-lived complex. The kon is the second-order rate constant of association.

Assay [1] concerns the target T1, human DR5 ECD-Avi-his (human, UniProt O14763 56-207).
T1 construct: also called recombinant human DR5 (monomeric His-Avi fusion protein); monomeric human DR5
As to the kind of experiment: SPR (BIAcore 3000), antibody captured by anti-human Fc, monomeric DR5 injected.

In assay [2] the target is T2, human DR5 (recombinant, fusion format not stated for the assay) (human, UniProt O14763 56-207).
T2 construct: all antigen constructs carry ECD aa 56-207; also called hu DR5; huDR5
In words: binding to human DR5 after stress test, pH 6.0, 2 weeks 40° C., against non-stressed initial material (defined 100%).

Assay [3] has as its target T2, human DR5 (recombinant, fusion format …). In words: binding to human DR5 after stress test, pH 7.4, 2 weeks 40° C., against non-stressed initial material (defined 100%).
Assay [4] deals with T3, Human FAP ectodomain + poly-lys-tag + his6-tag (human, UniProt Q12884 27-760).
T3 construct: also called recombinant soluble human FAP; hFAP
As to the kind of experiment: SPR (Biacore), bispecific antibody bound to immobilised human DR5-Fc, recombinant human FAP as second analyte (simultaneous binding).

Assay [5] has as its target T4, Murine FAP ectodomain + poly-lys-tag + his6-tag (murine, UniProt P97321 27-761).
T4 construct: also called recombinant soluble murine FAP
In words: SPR (Biacore), bispecific antibody bound to immobilised human DR5-Fc, recombinant murine FAP as second analyte (simultaneous binding). Background: In SPR one partner is held on a chip, and binding of the other changes the refractive index at the surface.

T4 sequence (P97321 other isoform, or with tags, fused parts or gaps): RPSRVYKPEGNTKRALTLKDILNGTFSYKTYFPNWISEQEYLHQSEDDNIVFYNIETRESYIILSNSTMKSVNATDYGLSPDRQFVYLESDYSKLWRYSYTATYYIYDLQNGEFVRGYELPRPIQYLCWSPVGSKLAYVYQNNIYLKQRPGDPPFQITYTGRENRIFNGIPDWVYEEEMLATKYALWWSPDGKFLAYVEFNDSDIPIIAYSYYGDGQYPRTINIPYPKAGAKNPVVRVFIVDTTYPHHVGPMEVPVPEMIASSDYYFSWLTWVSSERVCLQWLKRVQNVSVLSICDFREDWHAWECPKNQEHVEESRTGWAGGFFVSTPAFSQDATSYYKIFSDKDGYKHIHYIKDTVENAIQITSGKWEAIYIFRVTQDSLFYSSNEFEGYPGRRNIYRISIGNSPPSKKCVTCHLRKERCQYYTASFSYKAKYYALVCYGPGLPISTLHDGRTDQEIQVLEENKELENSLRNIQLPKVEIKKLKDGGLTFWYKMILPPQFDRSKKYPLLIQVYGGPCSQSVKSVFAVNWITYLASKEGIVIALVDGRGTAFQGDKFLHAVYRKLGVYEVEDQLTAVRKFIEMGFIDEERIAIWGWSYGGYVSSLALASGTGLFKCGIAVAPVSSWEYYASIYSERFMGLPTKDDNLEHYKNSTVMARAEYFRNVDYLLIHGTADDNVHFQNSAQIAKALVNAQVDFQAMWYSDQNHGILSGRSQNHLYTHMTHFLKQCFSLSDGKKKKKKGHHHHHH

B1: DR5TAA-0067 (antibody, human IgG1, kappa, L234A L235A, V domains shown)
VH: EVQLVETGGGLIQPGGSLRLSCAASGFTVSRYAMIWVRQAPGKGLEYIGFITSDGSTYYADSAKGRFTISRDNSKNTLYLQMNSLRAEDTAVYYCARYTYSDGTDLWGRGTLVTVSS
VL: DIQMTQSPSTLSASVGDRVTITCRASQSISTYLSWYQQKPGKAPKRLIYKASSLASGVPSRFSGSGSGTEFTLTISSLQPDDAATYYCQPNSGIATYGAAFGGGTKVEIKR
notes: humanized variant of DR5TAA-0011; also called VH7/VL15
In assay [1], B1 yielded a Kd of 20 nM, a koff of 0.0052 s⁻¹ and a kon of 260000 M⁻¹ s⁻¹. In addition, the “Relative active concentration as compared to the initial state” value (“Relative active concentration” for short) in assay [2] was found to be 107%. Moreover, in assay [3], the “Relative active concentration” value came out at 107%.

B2: DR5TAA-0074 (antibody, human IgG1, kappa, L234A L235A, V domains shown)
VH: EVQLVETGGGLIQPGGSLRLSCAASGFTVSRYAMIWVRQAPGKGLEYIGFITSDGSTYYADSAKGRFTISRDNSKNTLYLQMNSLRAEDTAVYYCARYTYSDGTDLWGRGTLVTVSS
VL: DIQMTQSPSSLSASVGDRVTITCRASQSISTYLSWYQQKPGQPPKRLIYKASTLASGVPSRFSGSGSGTDFTLTISSLQPEDFATYYCQPNSGIATYGAAFGGGTKVEIKR
notes: humanized variant of DR5TAA-0011; also called VH7/VL10
In assay [1], B2 registered a Kd of 21 nM, a koff of 0.0056 s⁻¹ and a kon of 270000 M⁻¹ s⁻¹. For the same molecule, the “Relative active concentration” value in assay [2] was found to be 103%. The “Relative active concentration” value in assay [3] is 100%.

B3: DR5TAA-0073 (antibody, human IgG1, kappa, L234A L235A, V domains shown)
VH: QVQLVESGGGLVQPGGSLRLSCSASGFSISRYAMIWVRQAPGKGLEYVGFITSDSSAYYASWAKGRFTISRDNSKNTLYLQMNSLRAEDTAVYYCARYTYSDGTDLWGQGTLVTVSS
VL: DIQMTQSPSSLSASVGDRVTITCRASQSISTYLSWYQQKPGKAPKRLIYKASTLASGVPSRFSGSGSGTDFTLTISSLQPEDAATYYCQPNSGIATYGAAFGGGTKVEIKR
notes: humanized variant of DR5TAA-0011; also called VH17/VL3
With B3, the “Relative active concentration” value in assay [2] amounted to 104%; in assay [3], 101%.

B4: DR5TAA-0071 (antibody, human IgG1, kappa, L234A L235A)
heavy: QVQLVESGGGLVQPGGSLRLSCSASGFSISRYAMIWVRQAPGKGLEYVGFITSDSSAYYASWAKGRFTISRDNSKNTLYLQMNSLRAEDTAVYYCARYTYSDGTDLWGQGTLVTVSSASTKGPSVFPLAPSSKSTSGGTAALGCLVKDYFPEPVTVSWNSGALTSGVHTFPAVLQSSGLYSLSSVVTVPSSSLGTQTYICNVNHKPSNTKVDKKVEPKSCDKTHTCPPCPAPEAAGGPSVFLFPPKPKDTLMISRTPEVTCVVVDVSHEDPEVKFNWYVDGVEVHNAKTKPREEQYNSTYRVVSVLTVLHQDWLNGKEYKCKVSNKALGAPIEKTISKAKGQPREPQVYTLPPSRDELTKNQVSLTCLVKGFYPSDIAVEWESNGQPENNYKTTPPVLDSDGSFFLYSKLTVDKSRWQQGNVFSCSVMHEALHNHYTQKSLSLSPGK
light: ADIQMTQSPSTLSASVGDRVTITCRASQSISTYLSWYQQKPGKAPKRLIYKASSLASGVPSRFSGSGSGTEFTLTISSLQPDDAATYYCQPNSGIATYGAAFGGGTKVEIKRTVAAPSVFIFPPSDEQLKSGTASVVCLLNNFYPREAKVQWKVDNALQSGNSQESVTEQDSKDSTYSLSSTLTLSKADYEKHKVYACEVTHQGLSSPVTKSFNRGEC
notes: humanized variant of DR5TAA-0011; also called VH17/VL15
With B4, in assay [1], binding was characterised by a dissociation constant (Kd) of 15 nM, the koff came to 0.0046 s⁻¹ and the kon worked out at 300000 M⁻¹ s⁻¹. Besides, the “Relative active concentration” value in assay [2] came out at 103%. Also, the “Relative active concentration” value in assay [3] was 98%.

B5: DR5TAA-0066 (antibody, human IgG1, kappa, L234A L235A, V domains shown)
VH: EVQLVETGGGLIQPGGSLRLSCAASGFTVSRYAMIWVRQAPGKGLEYIGFITSDGSTYYADSAKGRFTISRDNSKNTLYLQMNSLRAEDTAVYYCARYTYSDGTDLWGRGTLVTVSS
VL: DIQMTQSPSSLSASVGDRVTITCRASQSISTYLSWYQQKPGKAPKRLIYKASTLASGVPSRFSGSGSGTDFTLTISSLQPEDAATYYCQPNSGIATYGAAFGGGTKVEIKR
notes: humanized variant of DR5TAA-0011; also called VH7/VL3
On to B5, for which the entries for the “Relative active concentration” value in assay [2] and in assay [3] were 102% and 100%, respectively.

B6: DR5TAA-0068 (antibody, human IgG1, kappa, L234A L235A, V domains shown)
VH: QVQLVESGGGLVQPGGSLRLSCSASGFSISRYAMIWVRQAPGKGLEYVGFITSDSSAYYASWAKGRFTISRDNSKNTLYLQMNSLRAEDTAVYYCARYTYSDGTDLWGQGTLVTVSS
VL: DIQMTQSPSSLSASVGDRVTITCRASQSISTYLSWYQQKPGQPPKRLIYKASTLASGVPSRFSGSGSGTDFTLTISSLQPEDFATYYCQPNSGIATYGAAFGGGTKVEIKR
notes: humanized variant of DR5TAA-0011; also called VH17/VL10
Consider B6, for which the “Relative active concentration” value was found to be 103% in assay [2] and 101% in assay [3].

B7: DR5TAA-0075 (antibody, human IgG1, kappa, L234A L235A, V domains shown)
VH: EVQLVETGGGLIQPGGSLRLSCAASGFTVSRYAMIWVRQAPGKGLEYIGFITSDGSTYYADSAKGRFTISRDNSKNTLYLQMNSLRAEDTAVYYCARYTYSDGTDLWGRGTLVTVSS
VL: DIQMTQSPSSLSASVGDRVTITCQASQSISTYLSWYQQKPGQPPKRLIYKASTLASGVPSRFSGSGSGTDFTLTISSLQPEDFATYYCQPNSGIATYGAAFGGGTKVEIKR
notes: humanized variant of DR5TAA-0011; also called VH7/VL11
In assay [1], B7 showed a Kd of 17 nM, a koff of 0.0056 s⁻¹ and a kon of 320000 M⁻¹ s⁻¹. Moreover, the “Relative active concentration” value in assay [2] was 102%. Further, in assay [3], the “Relative active concentration” value worked out at 99%.

B8: DR5TAA-0072 (antibody, human IgG1, kappa, L234A L235A)
heavy: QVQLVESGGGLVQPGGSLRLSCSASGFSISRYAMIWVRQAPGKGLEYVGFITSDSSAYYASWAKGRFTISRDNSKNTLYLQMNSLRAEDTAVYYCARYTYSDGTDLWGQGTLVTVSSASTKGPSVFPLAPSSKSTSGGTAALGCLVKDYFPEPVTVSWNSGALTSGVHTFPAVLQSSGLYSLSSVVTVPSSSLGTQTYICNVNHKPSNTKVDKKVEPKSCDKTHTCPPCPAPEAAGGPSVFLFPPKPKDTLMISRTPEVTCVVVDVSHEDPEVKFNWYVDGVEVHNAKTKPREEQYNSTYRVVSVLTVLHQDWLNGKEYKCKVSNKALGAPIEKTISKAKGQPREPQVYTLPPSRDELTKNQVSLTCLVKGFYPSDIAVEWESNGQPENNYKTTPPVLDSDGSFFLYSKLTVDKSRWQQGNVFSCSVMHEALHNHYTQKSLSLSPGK
light: DIQMTQSPSTLSASVGDRVTITCRASQSISTYLSWYQQKPGKAPKRLIYKASSLASGVPSRFSGSGSGTEFTLTISSLQPDDAATYYCQPNSGIATYGAAFGGGTKVEIKRTVAAPSVFIFPPSDEQLKSGTASVVCLLNNFYPREAKVQWKVDNALQSGNSQESVTEQDSKDSTYSLSSTLTLSKADYEKHKVYACEVTHQGLSSPVTKSFNRGEC
notes: humanized variant of DR5TAA-0011; also called VH17/VL2
For B8, the “Relative active concentration” value in assay [2] was determined as 105%; in assay [3], 101%.

B9: DR5TAA-0052 (antibody, human IgG1, kappa, L234A L235A, V domains shown)
VH: QSVEESGGRLVTPGTPLTLTCTVSGFSISRYAMIWVRQAPGEGLEYIGFITSDSSAYYASWAKGRFTISKTSTTVDLKMTSPTTEDTATYFCARYTYSDGTDLWGPGTLVTVSS
VL: DIVMTQTPASVSEPVGGTVTIKCQASQSISTYLSWYQQKPGQPPKRLIYKASTLASGVPSRFKGSGSGTDFTLTIRDLESADAATYYCQPNSGIATYGAAFGGGTEVVVKR
notes: rabbit variable, human constant regions; also called chimeric form of DR5TAA-0011; chimeric variant
With B9, in assay [1], binding was characterised by a dissociation constant (Kd) of 7 nM, the koff came out at 0.0024 s⁻¹ and the kon amounted to 350000 M⁻¹ s⁻¹.

B10: 18F11_28H1 (bispecific antibody, human IgG1, kappa)
VH (DR5)-Fc part-VH (FAP)-CL chain: not shown
VL (DR5)-kappa light chain: EIVLTQSPGTLSLSPGERATLSCRASQSVSSSYLAWYQQKPGQAPRLLIYGASSRATGIPDRFSGSGSGTDFTLTISRLEPEDFAVYYCQQGQLPPITFGQGTKVEIKRTVAAPSVFIFPPSDEQLKSGTASVVCLLNNFYPREAKVQWKVDNALQSGNSQESVTEQDSKDSTYSLSSTLTLSKADYEKHKVYACEVTHQGLSSPVTKSFNRGEC
VLCH1 (FAP) chain: EIVLTQSPGTLSLSPGERATLSCRASQSVSRSYLAWYQQKPGQAPRLLIIGASTRATGIPDRFSGSGSGTDFTLTISRLEPEDFAVYYCQQGQVIPPTFGQGTKVEIKSSASTKGPSVFPLAPSSKSTSGGTAALGCLVKDYFPEPVTVSWNSGALTSGVHTFPAVLQSSGLYSLSSVVTVPSSSLGTQTYICNVNHKPSNTKVDKKVEPKSCD
notes: Printed as '18F11' on the sheet
On to B10, for which the binding result in assay [4] and in assay [5] was “binds” each time.

B11: DR5TAA-0037 (bispecific antibody, human IgG1, kappa)
VH (DR5)-Fc part-VH (FAP)-CL chain: not shown
VL (DR5)-kappa light chain: EIVLTQSPGTLSLSPGERATLSCRASQSVSSSYLAWYQQKPGQAPRLLIYGASSRATGIPDRFSGSGSGTDFTLTISRLEPEDFAVYYCQQGSNQPVTFGQGTKVEIKRTVAAPSVFIFPPSDEQLKSGTASVVCLLNNFYPREAKVQWKVDNALQSGNSQESVTEQDSKDSTYSLSSTLTLSKADYEKHKVYACEVTHQGLSSPVTKSFNRGEC
VLCH1 (FAP) chain: EIVLTQSPGTLSLSPGERATLSCRASQSVSRSYLAWYQQKPGQAPRLLIIGASTRATGIPDRFSGSGSGTDFTLTISRLEPEDFAVYYCQQGQVIPPTFGQGTKVEIKSSASTKGPSVFPLAPSSKSTSGGTAALGCLVKDYFPEPVTVSWNSGALTSGVHTFPAVLQSSGLYSLSSVVTVPSSSLGTQTYICNVNHKPSNTKVDKKVEPKSCD
Regarding B11, the binding result in assay [4] and in assay [5] was “binds” in each case.

B12: DR5TAA-0039 (bispecific antibody, human IgG1, kappa)
VH (DR5)-Fc part-VH (FAP)-CL chain: not shown
VL (DR5)-kappa light chain: EIVLTQSPGTLSLSPGERATLSCRASQSVSSSYLAWYQQKPGQAPRLLIYGASSRATGIPDRFSGSGSGTDFTLTISRLEPEDFAVYYCQQGESPPPTFGQGTKVEIKRTVAAPSVFIFPPSDEQLKSGTASVVCLLNNFYPREAKVQWKVDNALQSGNSQESVTEQDSKDSTYSLSSTLTLSKADYEKHKVYACEVTHQGLSSPVTKSFNRGEC
VLCH1 (FAP) chain: EIVLTQSPGTLSLSPGERATLSCRASQSVSRSYLAWYQQKPGQAPRLLIIGASTRATGIPDRFSGSGSGTDFTLTISRLEPEDFAVYYCQQGQVIPPTFGQGTKVEIKSSASTKGPSVFPLAPSSKSTSGGTAALGCLVKDYFPEPVTVSWNSGALTSGVHTFPAVLQSSGLYSLSSVVTVPSSSLGTQTYICNVNHKPSNTKVDKKVEPKSCD
notes: also called DR5 (20F2)-28H1 VHCL 2 + 2
As to B12, the binding result in assay [4] and in assay [5] was “binds” each time.

B13: DR5TAA-0038 (bispecific antibody, human IgG1, kappa)
VH (DR5)-Fc part-VH (FAP)-CL chain: not shown
VL (DR5)-kappa light chain: EIVLTQSPGTLSLSPGERATLSCRASQSVSSSYLAWYQQKPGQAPRLLIYGASSRATGIPDRFSGSGSGTDFTLTISRLEPEDFAVYYCQQGSQPPITFGQGTKVEIKRTVAAPSVFIFPPSDEQLKSGTASVVCLLNNFYPREAKVQWKVDNALQSGNSQESVTEQDSKDSTYSLSSTLTLSKADYEKHKVYACEVTHQGLSSPVTKSFNRGEC
VLCH1 (FAP) chain: EIVLTQSPGTLSLSPGERATLSCRASQSVSRSYLAWYQQKPGQAPRLLIIGASTRATGIPDRFSGSGSGTDFTLTISRLEPEDFAVYYCQQGQVIPPTFGQGTKVEIKSSASTKGPSVFPLAPSSKSTSGGTAALGCLVKDYFPEPVTVSWNSGALTSGVHTFPAVLQSSGLYSLSSVVTVPSSSLGTQTYICNVNHKPSNTKVDKKVEPKSCD
With B13, the binding result in assay [4] and in assay [5] was “binds” in each case.
